In the supplement of paper PMC6379048:

Key:
Experiment in all cases: Kd (EC50 corrected by depletion factor)
SRSF11 = biological target: T1, SRSF11 (UniProt Q05519)
T1 sequence: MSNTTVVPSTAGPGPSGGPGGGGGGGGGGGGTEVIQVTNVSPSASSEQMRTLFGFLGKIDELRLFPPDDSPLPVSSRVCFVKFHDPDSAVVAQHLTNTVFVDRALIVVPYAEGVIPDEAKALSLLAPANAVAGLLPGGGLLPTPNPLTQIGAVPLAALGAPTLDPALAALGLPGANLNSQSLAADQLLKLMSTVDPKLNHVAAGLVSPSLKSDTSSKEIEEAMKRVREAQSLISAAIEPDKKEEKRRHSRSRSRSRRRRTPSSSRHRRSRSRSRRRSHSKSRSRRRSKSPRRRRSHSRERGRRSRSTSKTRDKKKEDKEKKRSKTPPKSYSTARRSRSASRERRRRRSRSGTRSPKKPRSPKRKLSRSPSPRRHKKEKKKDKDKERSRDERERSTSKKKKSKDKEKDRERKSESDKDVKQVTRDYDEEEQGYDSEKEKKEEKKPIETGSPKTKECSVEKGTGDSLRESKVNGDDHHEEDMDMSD
Outline: (§1)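 Over three biological replicates and two independent experiments, proteins captured on NHS-Sepharose beads carrying 5′-amino-C6 RNA oligos were quantified by label-free LC-MS/MS and normalised to the control. Capture lasted 30 min at 4°C and followed a 1 h pre-incubation at 4°C of HEK293-FT lysate (2.5 mg protein/well) with the same oligos in free form (0 nM to 30 μM). EC50 was taken from a four-parameter log-logistic fit, and Kd was EC50 corrected by a protein-dependent depletion factor.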

SF3B3 = biological target: T2, SF3B3 (UniProt Q15393)
T2 sequence: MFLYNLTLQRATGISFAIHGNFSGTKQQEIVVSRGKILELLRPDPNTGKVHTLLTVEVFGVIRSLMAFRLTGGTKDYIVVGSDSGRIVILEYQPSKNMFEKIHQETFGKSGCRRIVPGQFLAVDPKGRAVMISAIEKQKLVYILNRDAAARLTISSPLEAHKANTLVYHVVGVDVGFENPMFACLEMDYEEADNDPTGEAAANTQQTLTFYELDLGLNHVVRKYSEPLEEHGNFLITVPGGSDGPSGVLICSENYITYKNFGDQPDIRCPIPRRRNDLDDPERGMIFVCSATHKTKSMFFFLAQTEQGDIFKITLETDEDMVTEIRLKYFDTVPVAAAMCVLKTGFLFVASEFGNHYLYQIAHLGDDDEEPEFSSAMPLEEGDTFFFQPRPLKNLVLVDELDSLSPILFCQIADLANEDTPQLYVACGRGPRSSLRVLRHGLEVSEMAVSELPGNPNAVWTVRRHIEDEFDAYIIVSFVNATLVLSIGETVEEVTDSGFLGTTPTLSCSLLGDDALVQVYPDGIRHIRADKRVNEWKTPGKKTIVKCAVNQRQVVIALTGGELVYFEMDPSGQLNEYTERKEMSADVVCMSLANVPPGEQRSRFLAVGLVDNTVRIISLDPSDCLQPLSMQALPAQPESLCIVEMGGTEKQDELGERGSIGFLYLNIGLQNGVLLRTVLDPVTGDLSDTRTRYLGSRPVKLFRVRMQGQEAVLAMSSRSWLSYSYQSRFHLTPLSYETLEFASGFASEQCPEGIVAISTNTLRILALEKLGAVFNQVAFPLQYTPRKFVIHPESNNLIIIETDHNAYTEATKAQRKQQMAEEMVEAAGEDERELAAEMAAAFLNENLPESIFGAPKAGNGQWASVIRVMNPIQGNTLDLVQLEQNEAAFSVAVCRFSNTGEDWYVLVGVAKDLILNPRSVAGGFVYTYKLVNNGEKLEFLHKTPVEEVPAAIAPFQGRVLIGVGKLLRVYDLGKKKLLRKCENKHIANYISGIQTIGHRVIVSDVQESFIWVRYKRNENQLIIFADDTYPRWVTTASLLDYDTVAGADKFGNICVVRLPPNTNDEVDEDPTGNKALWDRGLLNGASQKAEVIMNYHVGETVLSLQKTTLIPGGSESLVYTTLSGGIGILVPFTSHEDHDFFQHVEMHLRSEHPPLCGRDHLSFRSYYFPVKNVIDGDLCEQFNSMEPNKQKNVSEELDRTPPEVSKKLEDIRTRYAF
Outline: as §1

MRPL49 = MRPL49 (UniProt Q13405)
Outline: as §1

PPIE = PPIE (UniProt Q9UNP9)
Outline: as §1

LSM6 = biological target: T3, LSM6 (UniProt P62312)
T3 sequence: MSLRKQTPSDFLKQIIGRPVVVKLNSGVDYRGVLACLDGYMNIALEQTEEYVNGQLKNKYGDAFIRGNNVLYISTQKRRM
Outline: as §1

TARDBP = TARDBP (UniProt Q13148)
Outline: as §1

PRPF4 = biological target: T4, PRPF4 (UniProt O43172)
T4 sequence: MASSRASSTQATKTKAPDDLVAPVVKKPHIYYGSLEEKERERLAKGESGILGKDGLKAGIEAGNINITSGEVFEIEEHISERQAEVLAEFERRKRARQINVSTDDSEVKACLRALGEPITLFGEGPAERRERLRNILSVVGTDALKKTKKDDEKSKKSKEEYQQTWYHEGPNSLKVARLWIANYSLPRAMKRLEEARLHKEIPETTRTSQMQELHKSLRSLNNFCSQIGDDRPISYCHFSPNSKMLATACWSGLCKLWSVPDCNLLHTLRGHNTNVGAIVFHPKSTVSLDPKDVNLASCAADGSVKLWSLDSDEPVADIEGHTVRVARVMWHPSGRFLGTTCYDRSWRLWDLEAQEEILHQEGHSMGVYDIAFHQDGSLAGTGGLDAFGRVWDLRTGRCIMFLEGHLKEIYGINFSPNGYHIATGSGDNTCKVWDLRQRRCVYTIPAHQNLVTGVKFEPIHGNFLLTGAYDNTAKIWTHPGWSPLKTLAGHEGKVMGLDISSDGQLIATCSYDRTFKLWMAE
Outline: as §1

ZCCHC11 = ZCCHC11 (UniProt Q5TAX3)
Outline: as §1

MRPS18B = MRPS18B (UniProt Q9Y676)
Outline: as §1

Sequence of ZCCHC11 (Q5TAX3 whole entry): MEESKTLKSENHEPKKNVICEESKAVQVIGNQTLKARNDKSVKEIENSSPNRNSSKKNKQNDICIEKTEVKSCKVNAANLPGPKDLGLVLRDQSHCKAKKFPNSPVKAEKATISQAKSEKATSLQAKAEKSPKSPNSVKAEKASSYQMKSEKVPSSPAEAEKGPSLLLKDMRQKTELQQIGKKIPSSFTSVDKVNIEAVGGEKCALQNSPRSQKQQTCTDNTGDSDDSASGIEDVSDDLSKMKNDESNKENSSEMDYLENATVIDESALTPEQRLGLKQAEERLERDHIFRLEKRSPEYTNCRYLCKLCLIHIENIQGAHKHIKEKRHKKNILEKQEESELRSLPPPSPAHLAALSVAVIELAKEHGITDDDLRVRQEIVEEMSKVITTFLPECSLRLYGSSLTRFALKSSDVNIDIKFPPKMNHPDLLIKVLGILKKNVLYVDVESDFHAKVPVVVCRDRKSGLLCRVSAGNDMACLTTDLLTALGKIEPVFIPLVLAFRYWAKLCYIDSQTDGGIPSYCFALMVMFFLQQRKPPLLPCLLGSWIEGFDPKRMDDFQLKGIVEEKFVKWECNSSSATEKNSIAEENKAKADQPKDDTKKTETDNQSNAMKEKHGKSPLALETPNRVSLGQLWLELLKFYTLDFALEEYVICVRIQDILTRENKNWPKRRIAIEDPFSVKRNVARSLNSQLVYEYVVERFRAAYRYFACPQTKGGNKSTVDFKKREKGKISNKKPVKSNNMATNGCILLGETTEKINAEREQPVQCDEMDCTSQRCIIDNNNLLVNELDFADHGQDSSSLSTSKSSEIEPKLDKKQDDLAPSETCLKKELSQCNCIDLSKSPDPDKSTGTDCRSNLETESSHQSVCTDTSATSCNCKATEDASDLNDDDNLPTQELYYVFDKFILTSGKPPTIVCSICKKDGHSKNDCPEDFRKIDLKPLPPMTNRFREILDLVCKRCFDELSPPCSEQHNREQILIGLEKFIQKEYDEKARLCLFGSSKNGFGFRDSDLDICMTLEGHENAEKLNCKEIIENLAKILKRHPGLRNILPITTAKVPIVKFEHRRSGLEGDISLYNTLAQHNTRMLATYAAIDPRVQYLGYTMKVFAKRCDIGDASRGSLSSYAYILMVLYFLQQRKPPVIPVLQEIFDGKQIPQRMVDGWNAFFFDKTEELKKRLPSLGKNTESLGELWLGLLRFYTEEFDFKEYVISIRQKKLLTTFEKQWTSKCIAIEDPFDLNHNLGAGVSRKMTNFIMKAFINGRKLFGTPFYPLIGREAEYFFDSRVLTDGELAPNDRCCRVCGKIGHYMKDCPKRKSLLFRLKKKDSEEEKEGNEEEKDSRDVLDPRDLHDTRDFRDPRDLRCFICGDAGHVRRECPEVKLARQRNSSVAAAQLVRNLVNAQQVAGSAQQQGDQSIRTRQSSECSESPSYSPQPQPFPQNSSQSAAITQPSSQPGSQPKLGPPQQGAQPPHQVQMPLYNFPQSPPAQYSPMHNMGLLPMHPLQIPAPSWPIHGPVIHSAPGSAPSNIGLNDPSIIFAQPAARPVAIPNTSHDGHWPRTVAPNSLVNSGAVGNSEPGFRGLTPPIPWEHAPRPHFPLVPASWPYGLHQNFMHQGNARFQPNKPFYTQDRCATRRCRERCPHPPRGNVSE
Sequence of TARDBP (Q13148 whole entry): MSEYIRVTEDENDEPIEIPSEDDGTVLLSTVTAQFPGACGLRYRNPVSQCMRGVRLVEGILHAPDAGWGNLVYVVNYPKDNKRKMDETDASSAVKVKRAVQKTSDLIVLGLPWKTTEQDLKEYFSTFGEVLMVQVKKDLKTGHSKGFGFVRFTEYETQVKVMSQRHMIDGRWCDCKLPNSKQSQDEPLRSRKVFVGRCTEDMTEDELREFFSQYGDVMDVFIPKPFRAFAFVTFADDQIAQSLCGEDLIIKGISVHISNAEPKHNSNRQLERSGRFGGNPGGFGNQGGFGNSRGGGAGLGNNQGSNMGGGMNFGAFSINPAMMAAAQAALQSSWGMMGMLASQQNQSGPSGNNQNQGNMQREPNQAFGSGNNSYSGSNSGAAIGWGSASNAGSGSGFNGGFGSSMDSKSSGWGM
Sequence of PPIE (Q9UNP9 whole entry): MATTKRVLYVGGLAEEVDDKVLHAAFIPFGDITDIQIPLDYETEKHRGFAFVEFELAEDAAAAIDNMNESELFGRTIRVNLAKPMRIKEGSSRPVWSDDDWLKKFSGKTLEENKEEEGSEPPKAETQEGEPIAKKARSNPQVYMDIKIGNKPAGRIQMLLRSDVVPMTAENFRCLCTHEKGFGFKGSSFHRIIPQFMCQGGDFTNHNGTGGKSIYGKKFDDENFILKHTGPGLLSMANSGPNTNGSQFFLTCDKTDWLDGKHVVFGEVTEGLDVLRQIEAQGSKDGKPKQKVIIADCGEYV

Sequence: AAUAAA
- Kd (SRSF11): 126 nM
- Kd (SF3B3): 669 nM

Sequence: CUGUCCU
- Kd (MRPL49): 37 nM

Sequence: UAUUUAU
- Kd (PPIE): 205 nM
- Kd (LSM6): 275 nM
- Kd (TARDBP): 1320 nM
- Kd (PRPF4): 2640 nM
- Kd (ZCCHC11): 91.8 nM
- Kd (MRPS18B): 52.9 nM
